Experimental data as given in paper PMC4869151 (ACS Infectious Diseases, 2016).

Key:
[1] = molecular target: T1, recombinant HAstV-2 capsid protein (Human astrovirus 2 (HAstV-2), entry …, UniProt Q82446, strain); experiment: pull-down
[2] = molecular target: T1, recombinant HAstV-2 capsid protein; experiment: ELISA

Binder	binding result [1]	binding result [2]
recombinant single-chain variable fragment of the PL-2 antibody (scFv, V domains shown) VH: DVQLKQSGPGLVQPSQSLSITCTVSGFSLIDYGVHWVRQSPGKGLEWLGVIWTGGSTDYNAAFISRLTISKDNSKSQVFFKMNSLQANDTGIYYCGRPYYGNVMDYWGQGTSVTVSS VL: DIQMTQTTSSLSASLGDRVTISCRASQDISNYLNWYQQKPDGTVKLLIYYTSRLHSGVPSRFSGSGSGTDYSLTISNLEQEDIATYFCQQGNTFPPTFGGGTKLEIK	binds	–
monoclonal antibody PL-2 (antibody, V domains shown) VH: DVQLKQSGPGLVQPSQSLSITCTVSGFSLIDYGVHWVRQSPGKGLEWLGVIWTGGSTDYNAAFISRLTISKDNSKSQVFFKMNSLQANDTGIYYCGRPYYGNVMDYWGQGTSVTVSS VL: DIQMTQTTSSLSASLGDRVTISCRASQDISNYLNWYQQKPDGTVKLLIYYTSRLHSGVPSRFSGSGSGTDYSLTISNLEQEDIATYFCQQGNTFPPTFGGGTKLEIK	–	binds
